# From patent publication US20210070847A1 (UNIVERSITY OF FLORIDA RESEARCH FOUNDATION, published 2021)
# T1: recombinant glutathione S-transferase (GST) tagged human tau MTBD R4 (human)
# T1 construct: Expressed in E. coli; total bacterial lysates were blotted after SDS-PAGE; also called GST/R4; not shown: glutathione S-transferase (GST) tag encoded by bacterial expression plasmid pGEX-2T; junction
# T1 chain: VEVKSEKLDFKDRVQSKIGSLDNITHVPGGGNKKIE
# B1: monoclonal antibody 94-3A2-2 (antibody, V domains shown)
# VH: QVQLQQSGAELAKPGASVKMSCKASGYTFTTYWMHWIKQRPGQGLEWIGYINPSNDYTEYNQKFKDEATLTVDKSSSTAYMQLNSLISEDSAVYYCAHPAYWGQGTLVTVSS
# VL: ENVLTQSPAIMSASPGEKVTMTCSASSSVNYMHWYQQKSGTSPKLWIYDTSKLASGVPGRFSGSGSGNSYSLTISSMEAEDVATYYCFQGSGYPFTFGSGTKLEIKR
# B2: monoclonal antibody 94-3A6 (antibody, V domains shown)
# VH: QVQLQQPGTELVKPGASVKLSCKASGYPFTNYWMHWVKQRPGQGLEWIGNINPTNGDTNYNEKFKSKATLTVDKSSSTAYMQLSSLTSEDSAVYYCTRVTYWGQGTTLTVSS
# VL: ENVLTQSPAIMSASPGEKVTMTCSASSNVNYMHWFQQESSTSPKLWIYDTSKLASGVPGRFSGSGSGNSYSLTISSMEAEDVATYYCFQGSGYPYTFGGGTKLEIKR
# Experiments:
# [1] = target: T2, human 0N4R tau with the P301L mutation (expressed in JNPL3 tau transgenic mice) (human, UniProt P10636 1-758); assay: immunohistochemistry of spinal cord sections
# T2 construct: Tested as inclusions in spinal cord sections of JNPL3 mice; also called tau inclusions of JNPL3 mice
# Protocol: Paraffin embedded tissues from JNPL3 tau transgenic, PS19 tau-transgenic and non-transgenic (NTg) mice were used. All paraffin embedded, formalin fixed human brain tissues from de-identified donors were obtained through a human brain tissue bank. Sequential tissue sections were deparaffinized with xylenes and sequentially rehydrated with graded ethanol solutions (100-70%). Antigen retrieval was performed by incubating sections in a steam bath for 30 minutes. Endogenous peroxidase activity was quenched with 1.5% hydrogen peroxide/0.005% Triton-X-100/Tris-buffered Saline (TBS) for 20 minutes. Sections were blocked with 2.5% horse serum then incubated overnight at 4° C. with primary antibody. Following washing with TBS, sections were incubated with Vector ImmPress anti-mouse IgG peroxidase (Vector Laboratories, Burlingame, Calif., USA) for 30 minutes. Sections were washed with TBS and then developed with 3, 3′diaminobenzidine (DAB kit; Vector Laboratories). Reactions were stopped by immersing the slides in TBS and sections were counterstained with Mayer's hematoxylin (Sigma Aldrich, St. Louis, Mo.). Next, sections were dehydrated with an ascending series of ethanol solutions (70%-100%) followed by xylenes and coverslipped using cytoseal (Thermo Scientific, Waltham, Mass.).
# Each of the 83E4, 94-3A2-2, 94-3A6 and 94-4F1 binds R4 and can recognize 3- and 4-repeat tau. […]
# [2] = target: recombinant human α-synuclein (human, UniProt P37840 1-140); assay: ELISA screening of hybridoma media on coated protein
# Protocol: (§1) All hybridoma clones were screened for reactivity to K18 by enzyme-linked immunosorbent assay (ELISA). MaxiSorp plates (Thermo Scientific, Waltham, Mass.) or Immulon 4HBX plates (ThermoFisher Scientific, Waltham, Mass.) were coated with 1 μg/ml human recombinant tau or αS proteins or Aβ in PBS or 100 mM sodium bicarbonate and blocked with 5% FBS/PBS or 1% Block ACE in PBS. Media from the hybridomas were applied to plates, which were then incubated at room temperature for 3 hours. Next, the plates were washed with PBS and incubated with goat anti-mouse secondary antibody conjugated to horse radish peroxidase (HRP; Jackson Immuno Research Labs, West Grove, Pa.) for 1 hour at room temperature. Then, plates were washed and TMB substrates (Pierce, Rockford, Ill.) were applied until color changes were observed. Reactions were then quenched with 1M HCl or 85% 0-Phosphoric acid and absorbance was measured at 450 nm. Clones that were positive by ELISA were transferred to larger culture plates as needed. […]
# (§2) Mice were immunized with the synthetic peptides corresponding to the MTBD in 4R human tau 244-372 (K18) conjugated to 21-140 αS at the N-terminus or 21-140 αS at the N-terminus and Aβ1-42 at the C-terminus. […] The specificity of these monoclonal antibodies was further determined by probing immunoblots of recombinant full-length human 2N/3R and 2N/4R tau and K18 (4R) tau fragment (FIG. 2). […]
# [3] = target: T1, recombinant glutathione S-transferase …; assay: summary of immunoblots of GST-tagged MTBD fragments
# Description: For the generation of recombinant glutathione S-transferases (GST) tagged human MTBD R1-3 (residues 244-336 relative to ON/4R tau), R1 (residues 244-274 relative to ON/4R tau), R3 (residues 306-336 relative to ON/4R tau) and R4 (residues 337-372 relative to ON/4R tau) proteins, the corresponding cDNA sequences were amplified by PCR with the respective oligonucleotides with added BamHI and EcoRI restriction sites and cloned in these sites of bacterial expression plasmid pGEX-2T. These proteins were expressed in E. coli BL21 (DE3)/RIL with isopropyl β-D-1-thiogalactopyranoside induction. The bacteria were lysed with 2% SDS and following the addition of SDS sample buffer equal amounts of total bacterial lysates were resolved by SDS-PAGE and analyzed by immunoblotting.
# Mice were immunized with the synthetic peptides corresponding to the MTBD in 4R human tau 244-372 (K18) conjugated to 21-140 αS at the N-terminus or 21-140 αS at the N-terminus and Aβ1-42 at the C-terminus. […] This selectivity for tau was also confirmed by detection of tau pathology by immunohistochemistry of human AD post-mortem brain tissue with abundant tau pathology. […] The specificity of these monoclonal antibodies was further determined by probing immunoblots of recombinant full-length human 2N/3R and 2N/4R tau and K18 (4R) tau fragment (FIG. 2). […]
# [4] = target: T3, human 1N4R tau with the P301S mutation (expressed in PS19 tau transgenic mice) (human, UniProt P10636 1-758); assay: immunoblot of total mouse brain lysates
# T3 construct: Tested in total brain lysates (immunoblot) and spinal cord sections (immunohistochemistry) of PS19 mice; also called human tau in PS19 mice; over-expressed 1N4R human tau in PS19 brain
# Protocol: Preparation of total mouse brain protein lysates Tau KO, PS19 Tg or NTg mice were euthanized by CO₂ inhalation and the brains were harvested. Brain tissue was homogenized in 2% SDS/50 mM Tris, pH 7.5 using a probe sonicator and then incubated for 10 min at 100° C. Protein concentrations were determined by BCA assay using BSA as the standard. Sample buffer was added and equal amounts of protein (10 μg) were resolved by SDS-PAGE and analyzed by immunoblot.
# To assess the selectivity of these antibodies for human tau, immunoblots of total mouse brain lysates from tau KO, NTg and PS19 tau Tg mice were probed with these antibodies (FIG. 3). All of these antibodies detected human tau in whole brain lysates from PS19 mice. Antibodies 81A11, 83E4 and 94-3A2-2 reacted weakly with endogenous tau in NTg mice. […] All the antibodies were specific for tau as shown using the lysates from tau KO mice. A non-specific band at approximately 30 kDa present in all the lysates was attributed to non-specific binding of the secondary antibody shown with an immunoblot probed only with secondary antibody.
# [5] = target: T4, recombinant full-length human 2N/4R tau (human, UniProt P10636 2-758); assay: immunoblot of recombinant tau proteins
# T4 construct: Expressed in E. coli from pRK172 and purified; also called 4-repeat tau
# [6] = target: T5, recombinant full-length human 2N/3R tau (human, UniProt P10636 2-758); assay: immunoblot of recombinant tau proteins
# T5 construct: Expressed in E. coli from pRK172 and purified; also called 3-repeat tau
# Aβ = Aβ (UniProt P05067 672-713); assay: ELISA screening of hybridoma media on coated peptide
# Protocol: as §1, §2
# T2 sequence (P10636 other isoform, or with tags, fused parts or gaps P301L P301L limits assumed): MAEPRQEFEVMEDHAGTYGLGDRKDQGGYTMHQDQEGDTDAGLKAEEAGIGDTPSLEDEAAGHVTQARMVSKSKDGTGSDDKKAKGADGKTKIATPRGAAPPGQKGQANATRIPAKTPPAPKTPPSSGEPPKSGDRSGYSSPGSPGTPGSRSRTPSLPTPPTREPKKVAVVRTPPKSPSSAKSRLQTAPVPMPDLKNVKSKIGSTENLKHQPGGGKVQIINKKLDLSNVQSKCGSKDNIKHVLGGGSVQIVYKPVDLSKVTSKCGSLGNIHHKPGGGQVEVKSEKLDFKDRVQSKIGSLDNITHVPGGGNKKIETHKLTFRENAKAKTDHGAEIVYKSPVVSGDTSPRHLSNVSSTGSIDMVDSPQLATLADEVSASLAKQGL
# T4 sequence (P10636 other isoform, or with tags, fused parts or gaps limits assumed): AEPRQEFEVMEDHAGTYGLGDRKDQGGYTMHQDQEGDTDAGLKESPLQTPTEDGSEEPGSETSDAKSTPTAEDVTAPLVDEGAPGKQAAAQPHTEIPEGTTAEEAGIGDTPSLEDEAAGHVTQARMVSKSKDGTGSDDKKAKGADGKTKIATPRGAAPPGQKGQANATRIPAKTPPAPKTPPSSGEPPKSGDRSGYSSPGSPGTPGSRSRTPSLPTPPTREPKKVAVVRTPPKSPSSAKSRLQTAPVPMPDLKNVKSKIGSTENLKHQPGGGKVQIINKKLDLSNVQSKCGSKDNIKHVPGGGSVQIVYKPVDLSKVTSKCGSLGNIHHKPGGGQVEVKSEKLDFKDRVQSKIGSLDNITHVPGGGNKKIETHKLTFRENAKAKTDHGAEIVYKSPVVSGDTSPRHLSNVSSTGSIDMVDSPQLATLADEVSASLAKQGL
# T3 sequence (P10636 other isoform, or with tags, fused parts or gaps P301S P301S limits assumed): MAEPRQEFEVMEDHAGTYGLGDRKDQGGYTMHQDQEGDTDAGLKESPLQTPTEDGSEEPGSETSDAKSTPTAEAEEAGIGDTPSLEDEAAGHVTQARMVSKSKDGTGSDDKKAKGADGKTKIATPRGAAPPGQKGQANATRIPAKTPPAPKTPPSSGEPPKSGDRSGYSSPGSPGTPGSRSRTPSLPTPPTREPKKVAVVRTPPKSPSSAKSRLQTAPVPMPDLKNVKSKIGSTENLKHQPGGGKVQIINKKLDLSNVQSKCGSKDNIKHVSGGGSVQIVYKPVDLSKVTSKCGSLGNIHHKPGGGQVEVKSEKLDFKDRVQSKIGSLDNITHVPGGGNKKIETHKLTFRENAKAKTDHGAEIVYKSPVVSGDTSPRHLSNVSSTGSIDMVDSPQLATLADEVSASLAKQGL
# Chain of Aβ (P05067 672-713): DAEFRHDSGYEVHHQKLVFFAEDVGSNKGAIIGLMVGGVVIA
# T5 sequence (P10636 other isoform, or with tags, fused parts or gaps limits assumed): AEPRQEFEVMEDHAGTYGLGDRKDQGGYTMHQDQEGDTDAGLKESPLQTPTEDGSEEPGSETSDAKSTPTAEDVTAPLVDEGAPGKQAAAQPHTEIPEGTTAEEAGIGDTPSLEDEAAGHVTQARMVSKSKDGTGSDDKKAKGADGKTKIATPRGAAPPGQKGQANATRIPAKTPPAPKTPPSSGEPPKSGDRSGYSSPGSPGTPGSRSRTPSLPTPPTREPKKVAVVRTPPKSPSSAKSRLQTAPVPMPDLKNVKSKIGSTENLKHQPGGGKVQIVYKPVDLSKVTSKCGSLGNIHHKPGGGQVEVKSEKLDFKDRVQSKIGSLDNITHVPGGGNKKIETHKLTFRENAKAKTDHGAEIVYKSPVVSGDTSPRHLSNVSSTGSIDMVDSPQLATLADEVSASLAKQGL
binder,measurement,setting,value
B1,binding result,[1],binds
same,binding result,[2],no binding
same,binding result,[3],binds
same,binding result,[4],binds
same,binding result,[5],binds
same,binding result,[6],binds
same,binding result,Aβ,no binding
B2,binding result,[1],binds
same,binding result,[2],no binding
same,binding result,[3],binds
same,binding result,[4],binds
same,binding result,[5],binds
same,binding result,[6],binds
same,binding result,Aβ,no binding
